Data published in the DeepSol protein solubility set.

Assay: soluble on expression in E. coli; label from the status in PepcDB or PDB records

Sequence	soluble on expression in E. coli
VAESKLVIGDRSFASRLIMGTGGATNLAVLEQALIASGTELTTVAIRRVDADGGTGLLDLLNRLGITPLPNTAGSRSAAEAVLTAQLAREALNTNWVKLEVIADERTLWPDAVELVRAAEQLVDDGFVVLPYTTDDPVLARRLEDTGCAAVMPLGSPIGTGLGIANPHNIEMIVAGARVPVVLDAGIGTASDAALAMELGCDAVLLASAVTRAADPPAMAAAMAAAVTAGYLARCAGRIPKRFWAQASSPAR	soluble
VAVRPVLAVGSYLPHAPWPWGVIDQAARVLLPASTTVRAAVSLPNASAQLVRASGVLPADGTRRAVLYLHGGAFLTCGANSHGRLVELLSKFADSPVLVVDYRLIPKHSIGMALDDCHDGYRWLRLLGYEPEQIVLAGDSAGGYLALALAQRLQEVGEEPAALVAISPLLQLAKEHKQAHPNIKTDAMFPARAFDALDALVASAAARNQVDGEPEELYEPLEHITPGLPRTLIHVSGSEVLLHDAQLAAAKLAAAGVPAEVRVWPGQVHDFQVAASMLPEAIRSLRQIGEYIREATG	not soluble
VDEIGELADSFNTLTKRVQEAQAMTEGERRKLSSVLAYMTDGVIATDRRGKVILINTPAEKMLRVKHESANGRSIIDVLDIGDTYQFEDLMEVDGSLTMDRSTLDKPYVLRANFSVIQRETG	not soluble
VDSVYRTRSLGVAAEGIPDQYADGEAARVWQLYIGDTRSRTAEYKAWLLGLLRQHGCHRVLDVACGTGVDSIMLVEEGFSVTSVDASDKMLKYALKERWNRRKEPAFDKWVIEEANWLTLDKDVPAGDGFDAVICLGNSFAHLPDSKGDQSEHRLALKNIASMVRPGGLLVIDHRNYDYILSTGCAPPGKNIYYKSDLTKDITTSVLTVNNKAHMVTLDYTVQVPGAGRDGAPGFSKFRLSYYPHCLASFTELVQEAFGGRCQHSVLGDFKPYRPGQAYVPCYFIHVLKKTG	soluble
VDVRAIMTPPAHQDGGKHDVDARGPCGLTPLMIAAVRGGGLDTGEDIENNEDSTAQVISDLLAQGAELNATMDKTGETSLHLAARFARADAAKRLLDAGADANCQDNTGRTPLHAAVAADAMGVFQILLRNRATNLNARMHDGTTPLILAARLAIEGMVEDLITADADINAADNSGKTALHWAAAVNNTEAVNILLMHHANRDAQDDKDETPLFLAAREGSYEACKALLDNFANREITDHMDRLPRDVASERLHHDIVRLLDEHVPRSPQMLSMTPQAMIGSPPPGQQQPQLITQPTVISAGNGGNNGNGNASGKQSNQT	soluble
VHEGHRKRLKERFLREGLDSFEQHQVLELLLFFSIPRKDTNELAHTLLNRYGSLSGVFEADPKDLATTPGIGENSAILLSLIPHLSRRYLNDKWRDKPELNSSAKAGQYAISLFAGRNYEVFYVICLDAQNRVNYAELVHEGTINEAPVYPRIIVETALRHKANSVILAHNHPGGTLNPSKADIEATKRIKAALEAISIKVVDHIIVCGGQYVSFAEKGLLSG	soluble
VIADDFTGATDIASFLVENGMPTVQINDVPTGTQPEGCDAVVISLKTRSCPAQEAIKQSLAALVWLKKQGCQQVYFKYCSTFDSTAEGNIGPVTDALMVALDTSFTVISPALPVNGRTVYQGYLFVMNHLLAESGMRHHPINPMTDSYLPRLMEAQAQGRCGVIPAQTLDEGVAATRAALSRLQQEGYRYAVLDALNERHLEIQGEVLRDAPLVTGGSGLAMGLARQWAKHGVSQARSAGYPLSGRAVVLSGSCSQMTNQQVAFYRQHAPTRDVDVARCLSSETREAYAEALAQWVLSQDSELAPMISATASTQALAAIQQQYGATEASHAVEALFSLLAARLAEGGITRFIVAGGETSGVVTQSLGITGFHIGPCISPGVPWVNALHAPVSLALKSGNFGDES	not soluble
VIGYEYPDWIWGWTNTVTYKNFTLSFTLDGRVGGMAHSKTNQAMWNSGAHIDSDNQWRYDEVVNKKTNFVGSGVKVVSGSVDYDSNGKIIHDNRVFAPNDVQVSYESYMKSTNPYIGTVTRQNVFDETFFKLRDLSLSYQMPKSVCDKLHMKGLTLAFVGQNLFVWTKEFRFTDPDSDSDNLSSPSTRYLGFNVKLDF	not soluble
VIVAGARTPIGKLMGSLKDFSASELGAIAIKGALEKANVPASLVEYVIMGQVLTAGAGQMPARQAAVAAGIGWDVPALTINKMCLSGIDAIALADQLIRAREFDVVVAGGQESMTKAPHLLMNSRSGYKYGDVTVLDHMAYDGLHDVFTDQPMGALTEQRNDVDMFTRSEQDEYAAASHQKAAAAWKDGVFADEVIPVNIPQRTGDPLQFTEDEGIRANTTAAALAGLKPAFRGDGTITAGSASQISDGAAAVVVMNQEKAQELGLTWLAEIGAHGVVAGPDSTLQSQPANAINKALDREGISVDQLDVVEINEAFAAVALASIRELGLNPQIVNVNGGAIAVGHPLGMSGTRITLHAALQLARRGSGVGVAALCGAGGQGDALILRAG	not soluble
VKLAAGMGVMSDLEKKFIELEAKLVAQPAGQAMPGKSNIFANNEAWRQEMLKQDPEFFNRLANGQSPEYLWIGCADSRVPANQLLDLPAGEVFVHRNIANQCIHSDISFLSVLQYAVQYLKVKHILVCGHYGCGGAKAALGDSRLGLIDNWLRHIRDVRRMNAKYLDKCKDGDEELNRLIELNVLEQVHNVCATSIVQDAWDAGQELTVQGVVYGVGDGKLRDLGVVVNSSDDISKFYRTKSDSGALKAGNPNAPLVQVTKGGESELDSTMEKLTAELVQQTPGKLKEGANRVFVNNENWRQKMLKQDPQFFSNLAHTQTPEILWIGCADSRVPANQIINLPAGEVFVHRNIANQCIHSDMSFLSVLQYAVQYLKVKRVVVCGHYACGGCAAALGDSRLGLIDNWLRHIRDVRRHNQAELSRITDPKDSLNRLIEINVLEQMHNVCATSIVQDAWDAGQELEVQGVVYGVGDGKLRDMGVVAKANDDIGQIFRTKQ	soluble
VKLTEKQKAFCDYYIETLNATESYKKAGYKVKTDGAARVNASRLLTNANVRKYIEERMKQKESERIASQDEVLEFLTRVMRGQEVEEVVGFTEYGAVKEKKTPSARDRVKAAELLGKRYALFTEKVNVEGNMGVAIIDDIKEDDSDDAS	soluble
VLGVTPDTEVVKPTRTQAERTAAMRTKLLDAAVDSLVELGYARTTTQGIARRAGVSRGAQLHHFPTKESLVVAAVEHLVDKRMEEILAADVDAGRGVDVLADAFSGPLFYAALELWVAARTDPALYEATVPLERKVNDALRRGSAEVFGDRFDADTIELSIELVRGLAVSALFRTPEAEQSLRARLLPVWESKVEKS	not soluble
VNQQLNSATKLFSVKLGATRVIYHAGTAGATLSVSNPQNYPILVQSSVKAADKSSPAPFLVMPPLFRLEANQQSQLRIVRTGGDMPTDRETLQWVCIKAVPPENEPSDTQAKGATLDLNLSINACDKLIFRPDAVKGTPEDVAGNLRWVETGNKLKVENPTPFYMNLASVTVGGKPITGLEYVPPFADKTLNMPGSAHGDIEWRVITDFGGESHPFHYVLK	soluble
VNVVQLASAPLHRIVAYTNESCALALYRDQDATLVFAKQVESANQLRYQLDLYRPVSVLWGASGHAVLAHLPPERVRTLLKKEPLSPTGLAALPARELNRDLKQIREQGYSVSTRGEKIEGAAGISTPIFGTGGHVIGCFSLFIPRIRYPEHRETELAQLLVREAGALSDVLAGRQAAPA	not soluble
VQEPLRVPPSAPARLVVLASGTGSLLRSLLDAAVGDYPARVVAVGVDRECRAAEIAAEASVPVFTVRLADHPSRDAWDVAITAATAAHEPDLVVSAGFMRILGPQFLSRFYGRTLNTHPALLPAFPGTHGVADALAYGVKVTGATVHLVDAGTDTGPILAQQPVPVLDGDDEETLHERIKVTERRLLVAAVAALATHGVTVVGRTATMGRKVTIG	soluble
VRDVLDNQEFGFTGLHVAAAVADTLGTGDTLFAAASNSIRDLSLVGMPFDGVDTFSPRGVAGIDGSVAQAIGTSLAVQSRHPDEIRAPRTVALLGDLSFLHDIGGLLIGPDEPRPENLTIVVSNDNGGGIFELLETGADGLRPNFERAFGTPHDASIADLCAGYGIEHQVVDNLQDLIIALVDTTEVSGFTIIEASTVRDTRRAQQQALMDTVH	not soluble
VRGLPRAKKLEKLGVFSACKANGTCKCNGWKNPKPPTAPRIDLQQPAANLSELCRSCEHPLADHVSHLENVSEDEINRLLGMVVDVENLFMSVHKEEDTDTKQVYFYLFKLLRKCILQMTRPVVEGSLGSPPFEKPNIEQGVLNFVQYKFSHLAPRERQTMFELSKMFLLCLNYWELETPAQFRQRSQAEDVATYKVNYTRWLCYCHVPQSCDSLPRYETTHVFGRS	soluble
VRKRMVIGLSTGSDDDDVEVIGGVDPRLIAVQENDSDESSLTDLVEQPAKVMRIGTMIKQLLEEVRAAPLDEASRNRLRDIHATSIRELEDGLAPELREELDRLTLPFNEDAVPSDAELRIAQAQLVGWLEGLFHGIQTALFAQQMAARAQLQQMRQGALPPGVGKSGQHGHGTGQYL	soluble
VRRDRAPPERGGAGTSQDGTSKNWFKITIPYGRKYDKAWLLSMIQSKCSVPFTPIEFHYENTRAQFFVEDASTASALKAVNYKILDRENRRISIIINSSAPPHTILNELKPEQVEQLKLIMSKRYDGSQQALDLKGLRSDPDLVAQNIDVVLNRRSSMAATLRIIEENIPELLSLNLSNNRLYRLDDMSSIVQKAPNLKILNLSGNELKSERELDKIKGLKLEELWLDGNSLCDTFRDQSTYISAIRERFPKLLRLDGHELPPPIAFDVEAPTTLPP	soluble
VSEIKTLVTFFGGTGDLAKRKLYPSVFNLYKKGYLQKHFAIVGTARQALNDDEFKQLVRDSIKDFTDDQAQAEAFIEHFSYRAHDVTDAASYAVLKEAIEEAADKFDIDGNRIFYMSVAPRFFGTIAKYLKSEGLLADTGYNRLMIEKPFGTSYDTAAELQNDLENAFDDNQLFRIDHYLGKEMVQNIAALRFGNPIFDAAWNKDYIKNVQVTLCEVLGVEERAGYYDTAGALLDMIQNHTMQIVGWLAMEKPESFTDKDIRAAKNAAFNALKIYDEAEVNKYFVRAQYGAGDSADFKPYLEELDVPADSKNNTFIAGELQFDLPRWEGVPFYVRSGKRLAAKQTRVDIVFKAGTFNFGSEQEAQEAVLSIIIDPKGAIELKLNAKSVEDAFNTRTIDLGWTVSDEDKKNTPEPYERMIHDTMNGDGSNFADWNGVSIAWKFVDAISAVYTADKAPLETYKSGSMGPEASDKLLAANGDAWVFKG	soluble
VSPRPGPAGRGPAPCRCADLHSLCVDSHALRRDGMRFLHTADWQLGMTRHFLAGDAQPRYSAARRDAVAGLKALAADVGAEFVVVAGDVFEHNQLAPQIVGQSLEAMRVIGLPVYLLPGNHDPLDASSVYTSTLFRAERPDNVVVLDRAGVHEVRPGVQIVAAPWRSKAPTTDPVAEVLAGLPTDAAIRLLVAHGGVDALDPDHDKPSLIRLAALDDALTRQAIHYVALGDKHSLTQVGSSGRVWYSGAPEVTNFDDVEPDPGHVLVVDIDESDPRHPVTVDARRIGRWRFVTLHHQVDTSRDIADLDLNLDLMTDKDRTVVRLALTGSLTVTDRAALDTCLDKYARLFAWLGLWERHTDLAVIPVDAEFTDLGIGGFAAAAVDELVATARGGDDESAVDAQAALALLLRLADRGAA	not soluble
VTALLDVNVLIALGWPNHVHHAAAQRWFTQFSSNGWATTPITEAGYVRISSNRSVMQVSTTPAIAIAQLAAMTSLAGHTFWPDDVPLIVGSAGDRDAVSNHRRVTDCHLIALAARYGGRLVTFDAALADSASAGLVEVL	not soluble
VTLAAEPHPAPPQQPTVAWSEPDVDRRVEFWPTVAIRSALESGDIATWQRIAAALKRDPYGRTARQVEEVLEGIPATGIANAFWEVLDRARTHLDANERAEVARQVGLLLDRSGLQRQEFASRIGVTAQDLTAYLDGIVSPSASLMIRMRRLSDRFVRAKSVRAADS	soluble
VTLRVVPESLAGASAAIEAVTARLAAAHAAAAPFIAAVIPPGSDSVSVCNAVEFSVHGSQHVAMAAQGVEELGRSGVGVAESGASYAARDALAAASYLSGGL	not soluble
